In US20030108548A1 (TOLERANCE THERAPEUTICS, published 2003):

How the values were obtained:
[1] = target: human FcR I and FcR II on cells; assay: 125I-human IgG on U937 cells in the absence of inhibitor
human CD3 complex [2] = target: T1, human CD3 complex (human, UniProt P07766 23-207); assay: competition against FITC-mOKT3 tracer on human PBMC, flow cytometry; affinity calculated from the competitor concentration at half-maximal tracer binding (FIG. 3A)
T1 construct: whole, on cells; In all assays the target stood on cells as the whole TCR/CD3 complex; also called CD3 antigen; TCR complex

[3] = target: human FcR I and FcR II on cells; assay: competitive inhibition of PE-murine IgG2a or 125I-human IgG binding to U937 cells
human CD3 complex [4] = target: T1, human CD3 complex; assay: competition against FITC-mOKT3 tracer on human PBMC, flow cytometry; affinity calculated from the competitor concentration at half-maximal tracer binding (FIG. 3B)

125I-labelled human IgG (antibody)
maximum binding [1]: 2750 cpm
maximum binding as percent of the total radioactivity added [1]: 15%

B1: gOKT3-5 (antibody, human IgG4, V domains shown)
VH: QVQLVQSGGGVVQPGRSLRLSCKASGYTFTRYTMHWVRQAPGKGLEWIGYINPSRGYTNYNQKVKDRFTISTDKSKSTAFLQMDSLRPEDTAVYYCARYYDDHYCLDYWGQGTPVTVSS
VL: DIQMTQSPSSLSASVGDRVTITCSASSSVSYMNWYQQTPGKAPKRWIYDTSKLASGVPSRFSGSGSGTDYTFTISSLQPEDIATYYCQQWSSNPFTFGQGTKLQITR
notes: Humanized OKT3, human IgG4/kappa; also called gLC/gHA; gOKT3-5(γ4); not shown: human IgG4 heavy chain constant region; human kappa light chain constant region
Ka (human CD3 complex [2]): 1.1e+09 M⁻¹
fold higher concentration for the same inhibition, against murine OKT3 [3]: 10 fold

B2: gOKT3-7(γ4) (antibody, V domains shown)
VH: QVQLVQSGGGVVQPGRSLRLSCKASGYTFTRYTMHWVRQAPGKGLEWIGYINPSRGYTNYNQKVKDRFTISRDNSKNTAFLQMDSLRPEDTGVYFCARYYDDHYCLDYWGQGTPVTVSS
VL: DIQMTQSPSSLSASVGDRVTITCSASSSVSYMNWYQQTPGKAPKRWIYDTSKLASGVPSRFSGSGSGTDYTFTISSLQPEDIATYYCQQWSSNPFTFGQGTKLQITR
Ka (human CD3 complex [4]): 1.4e+09 M⁻¹
